Results as given in PMC2756588.

T1: Bzz1-1, P38822
T1 sequence (P38822 478-572, looked up): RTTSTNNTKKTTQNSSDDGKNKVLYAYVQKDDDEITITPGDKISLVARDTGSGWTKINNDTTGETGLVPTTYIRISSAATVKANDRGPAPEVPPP

T2: Lsb1, P53281
T2 sequence (P53281 45-122, looked up): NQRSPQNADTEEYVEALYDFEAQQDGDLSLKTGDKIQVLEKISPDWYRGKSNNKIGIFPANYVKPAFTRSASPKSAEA

T3: Pex13, P80667
T3 sequence (P80667 295-386, looked up): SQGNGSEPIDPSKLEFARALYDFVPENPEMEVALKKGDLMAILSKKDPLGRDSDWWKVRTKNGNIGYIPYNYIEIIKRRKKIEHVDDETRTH

T4: Nbp2, Q12163
T4 sequence (Q12163 103-180, looked up): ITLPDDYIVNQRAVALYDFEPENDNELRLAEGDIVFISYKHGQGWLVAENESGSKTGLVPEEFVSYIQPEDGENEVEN

T5: Hse1, P38753
T5 sequence (P38753 208-285, looked up): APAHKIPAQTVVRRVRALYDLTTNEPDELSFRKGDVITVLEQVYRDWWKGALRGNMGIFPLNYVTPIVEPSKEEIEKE

T6: Sla1-2, P32790
T6 sequence (P32790 60-140, looked up): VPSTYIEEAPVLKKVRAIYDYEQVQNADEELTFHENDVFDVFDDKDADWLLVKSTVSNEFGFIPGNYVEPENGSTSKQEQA

T7: Lsb4, P32793
T7 sequence (P32793 402-468, looked up): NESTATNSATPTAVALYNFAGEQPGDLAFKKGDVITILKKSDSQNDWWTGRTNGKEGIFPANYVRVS

T8: Fus1, P11710
T8 sequence (P11710 432-512, looked up): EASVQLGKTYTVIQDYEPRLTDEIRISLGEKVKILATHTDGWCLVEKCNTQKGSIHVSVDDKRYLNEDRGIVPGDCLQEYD

T9: Pin3, Q06449
T9 sequence (Q06449 53-122, looked up): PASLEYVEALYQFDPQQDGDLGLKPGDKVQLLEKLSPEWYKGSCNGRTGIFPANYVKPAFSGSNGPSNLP

T10: Bud14, P27637
T10 sequence (P27637 247-328, looked up): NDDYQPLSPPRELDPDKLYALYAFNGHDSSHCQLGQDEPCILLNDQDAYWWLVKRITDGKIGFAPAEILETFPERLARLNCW

T11: Bzz1-2, P38822
T11 sequence (P38822 568-633, looked up): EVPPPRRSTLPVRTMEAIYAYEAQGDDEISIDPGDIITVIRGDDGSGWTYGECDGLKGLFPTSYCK

T12: Boi2, P39969
T12 sequence (P39969 32-116, looked up): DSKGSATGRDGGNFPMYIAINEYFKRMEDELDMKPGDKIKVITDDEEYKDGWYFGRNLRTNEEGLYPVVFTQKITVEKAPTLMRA

T13: Cdc25, P04821
T13 sequence (P04821 50-136, looked up): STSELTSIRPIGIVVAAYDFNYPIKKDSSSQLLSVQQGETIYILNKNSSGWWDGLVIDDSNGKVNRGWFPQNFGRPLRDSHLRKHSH

T14: Hof1, Q05080
T14 sequence (Q05080 590-669, looked up): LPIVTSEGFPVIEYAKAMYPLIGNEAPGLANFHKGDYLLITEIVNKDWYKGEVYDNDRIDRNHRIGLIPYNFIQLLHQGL

T15: Lsb3, P43603
T15 sequence (P43603 385-451, looked up): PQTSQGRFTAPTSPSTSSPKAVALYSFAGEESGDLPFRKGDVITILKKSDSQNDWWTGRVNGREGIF

T16: Boi1, P38041
T16 sequence (P38041 1-86, looked up): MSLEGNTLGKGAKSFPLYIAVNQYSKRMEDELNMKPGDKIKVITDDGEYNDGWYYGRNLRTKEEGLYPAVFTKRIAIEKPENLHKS

T17: Abp1, P15891
T17 sequence (P15891 535-592, looked up): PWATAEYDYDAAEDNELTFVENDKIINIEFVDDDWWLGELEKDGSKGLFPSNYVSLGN

T18: Bbc1, P47068
T18 sequence (P47068 1-78, looked up): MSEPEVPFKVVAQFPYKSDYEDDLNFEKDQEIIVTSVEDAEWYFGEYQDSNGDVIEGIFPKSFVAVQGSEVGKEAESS

T19: Sla1-3, P32790
T19 sequence (P32790 344-424, looked up): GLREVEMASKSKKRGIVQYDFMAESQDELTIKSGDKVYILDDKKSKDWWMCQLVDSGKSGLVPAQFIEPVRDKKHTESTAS

T20: Cyk3, Q07533
T20 sequence (Q07533 1-83, looked up): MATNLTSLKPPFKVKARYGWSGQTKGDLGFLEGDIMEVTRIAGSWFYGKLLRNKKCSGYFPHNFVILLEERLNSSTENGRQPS

T21: Myo5, Q04439
T21 sequence (Q04439 1072-1160, looked up): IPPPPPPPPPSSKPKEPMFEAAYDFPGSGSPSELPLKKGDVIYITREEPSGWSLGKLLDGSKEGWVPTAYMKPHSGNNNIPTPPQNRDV


biological target: T1, Bzz1-1, P38822; test: SPOT array; details: median of control spots 4446

Binder | SPOT intensity
SPLGAPPPPPHKDHL | 0
GDHPKGPPPPPPPPD | 331

Further lines, results first:

SPOT intensity | Binder
0 | TPEIPPPLPPKIMVH
1470 | RTRRRPPPPPIPSTQ

biological target: Sho1, P40073; test: SPOT array; details: median of control spots 1148
Sequence (P40073 287-367): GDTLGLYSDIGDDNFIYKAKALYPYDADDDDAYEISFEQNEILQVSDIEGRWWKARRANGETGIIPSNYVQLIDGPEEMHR

Binder | SPOT intensity
SPLGAPPPPPHKDHL | 1
GDHPKGPPPPPPPPD | 0

Next, values leading:

SPOT intensity | Binder
52 | TPEIPPPLPPKIMVH
83 | RTRRRPPPPPIPSTQ

biological target: T2, Lsb1, P53281; test: SPOT array; details: median of control spots 388

Binder | SPOT intensity
SPLGAPPPPPHKDHL | 0
GDHPKGPPPPPPPPD | 0

Now from value to binder:

SPOT intensity | Binder
0 | TPEIPPPLPPKIMVH
800 | RTRRRPPPPPIPSTQ

biological target: T3, Pex13, P80667; test: SPOT array; details: median of control spots 1341

Binder | SPOT intensity
SPLGAPPPPPHKDHL | 0
GDHPKGPPPPPPPPD | 0

Second part, the binder after the results:

SPOT intensity | Binder
321 | TPEIPPPLPPKIMVH
21 | RTRRRPPPPPIPSTQ

biological target: T4, Nbp2, Q12163; test: SPOT array; details: median of control spots 357

Binder | SPOT intensity
SPLGAPPPPPHKDHL | 0
GDHPKGPPPPPPPPD | 1

Second part, the binder after the results:

SPOT intensity | Binder
0 | TPEIPPPLPPKIMVH
107 | RTRRRPPPPPIPSTQ

biological target: GST; test: SPOT array; details: median of control spots 978

Binder | SPOT intensity
SPLGAPPPPPHKDHL | 1
GDHPKGPPPPPPPPD | 0

Further lines, results first:

SPOT intensity | Binder
0 | TPEIPPPLPPKIMVH
1 | RTRRRPPPPPIPSTQ

biological target: T5, Hse1, P38753; test: SPOT array; details: median of control spots 1727

Binder | SPOT intensity
SPLGAPPPPPHKDHL | 0
GDHPKGPPPPPPPPD | 0

More lines, now with the values ahead:

SPOT intensity | Binder
1540 | TPEIPPPLPPKIMVH
63 | RTRRRPPPPPIPSTQ

biological target: Bem1-1, P29366; test: SPOT array; details: median of control spots 4282
Sequence (P29366 55-141): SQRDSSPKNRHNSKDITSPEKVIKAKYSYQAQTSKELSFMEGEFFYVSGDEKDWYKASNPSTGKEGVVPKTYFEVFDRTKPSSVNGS

Binder | SPOT intensity
SPLGAPPPPPHKDHL | 0
GDHPKGPPPPPPPPD | 0

Continued, values first:

SPOT intensity | Binder
0 | TPEIPPPLPPKIMVH
0 | RTRRRPPPPPIPSTQ

biological target: T6, Sla1-2, P32790; test: SPOT array; details: median of control spots 712

Binder | SPOT intensity
SPLGAPPPPPHKDHL | 0
GDHPKGPPPPPPPPD | 0

More lines, now with the values ahead:

SPOT intensity | Binder
0 | TPEIPPPLPPKIMVH
3 | RTRRRPPPPPIPSTQ

biological target: T7, Lsb4, P32793; test: SPOT array; details: median of control spots 397

Binder | SPOT intensity
SPLGAPPPPPHKDHL | 0
GDHPKGPPPPPPPPD | 0

The remaining lines, values ahead:

SPOT intensity | Binder
42 | TPEIPPPLPPKIMVH
69 | RTRRRPPPPPIPSTQ

biological target: T8, Fus1, P11710; test: SPOT array; details: median of control spots 1200

Binder | SPOT intensity
SPLGAPPPPPHKDHL | 0
GDHPKGPPPPPPPPD | 0

Continued, values first:

SPOT intensity | Binder
0 | TPEIPPPLPPKIMVH
13 | RTRRRPPPPPIPSTQ

biological target: T9, Pin3, Q06449; test: SPOT array; details: median of control spots 2171

Binder | SPOT intensity
SPLGAPPPPPHKDHL | 0
GDHPKGPPPPPPPPD | 0

The next lines start with the values.

SPOT intensity | Binder
20 | TPEIPPPLPPKIMVH
10 | RTRRRPPPPPIPSTQ

biological target: Myo3, P36006; test: SPOT array; details: median of control spots 468

Binder | SPOT intensity
SPLGAPPPPPHKDHL | 327
GDHPKGPPPPPPPPD | 456

Results, then the binder that gave them:

SPOT intensity | Binder
304 | TPEIPPPLPPKIMVH
487 | RTRRRPPPPPIPSTQ

biological target: T10, Bud14, P27637; test: SPOT array; details: median of control spots 956

Binder | SPOT intensity
SPLGAPPPPPHKDHL | 0
GDHPKGPPPPPPPPD | 1

The next lines start with the values.

SPOT intensity | Binder
0 | TPEIPPPLPPKIMVH
16 | RTRRRPPPPPIPSTQ

biological target: T11, Bzz1-2, P38822; test: SPOT array; details: median of control spots 4538

Binder | SPOT intensity
SPLGAPPPPPHKDHL | 0
GDHPKGPPPPPPPPD | 0

Other lines, results leading:

SPOT intensity | Binder
0 | TPEIPPPLPPKIMVH
2960 | RTRRRPPPPPIPSTQ

biological target: T12, Boi2, P39969; test: SPOT array; details: median of control spots 1161

Binder | SPOT intensity
SPLGAPPPPPHKDHL | 0
GDHPKGPPPPPPPPD | 0

More lines, now with the values ahead:

SPOT intensity | Binder
0 | TPEIPPPLPPKIMVH
0 | RTRRRPPPPPIPSTQ

biological target: T13, Cdc25, P04821; test: SPOT array; details: median of control spots 969

Binder | SPOT intensity
SPLGAPPPPPHKDHL | 0
GDHPKGPPPPPPPPD | 0

More lines, now with the values ahead:

SPOT intensity | Binder
2 | TPEIPPPLPPKIMVH
3 | RTRRRPPPPPIPSTQ

biological target: Bem1-2, P29366; test: SPOT array; details: median of control spots 4347
Sequence (P29366 139-227): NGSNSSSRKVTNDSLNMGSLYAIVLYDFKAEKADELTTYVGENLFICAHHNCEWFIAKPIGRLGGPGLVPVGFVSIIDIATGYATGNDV

Binder | SPOT intensity
SPLGAPPPPPHKDHL | 0
GDHPKGPPPPPPPPD | 0

Continued, values first:

SPOT intensity | Binder
0 | TPEIPPPLPPKIMVH
79 | RTRRRPPPPPIPSTQ

biological target: T14, Hof1, Q05080; test: SPOT array; details: median of control spots 4086

Binder | SPOT intensity
SPLGAPPPPPHKDHL | 0
GDHPKGPPPPPPPPD | 0

Results, then the binder that gave them:

SPOT intensity | Binder
2240 | TPEIPPPLPPKIMVH
8 | RTRRRPPPPPIPSTQ

biological target: T15, Lsb3, P43603; test: SPOT array; details: median of control spots 406

Binder | SPOT intensity
SPLGAPPPPPHKDHL | 0
GDHPKGPPPPPPPPD | 0

Now from value to binder:

SPOT intensity | Binder
96 | TPEIPPPLPPKIMVH
56 | RTRRRPPPPPIPSTQ

biological target: T16, Boi1, P38041; test: SPOT array; details: median of control spots 1162

Binder | SPOT intensity
SPLGAPPPPPHKDHL | 1
GDHPKGPPPPPPPPD | 0

Further lines, results first:

SPOT intensity | Binder
0 | TPEIPPPLPPKIMVH
1 | RTRRRPPPPPIPSTQ

biological target: T17, Abp1, P15891; test: SPOT array; details: median of control spots 935

Binder | SPOT intensity
SPLGAPPPPPHKDHL | 0
GDHPKGPPPPPPPPD | 0

Results, then the binder that gave them:

SPOT intensity | Binder
2 | TPEIPPPLPPKIMVH
212 | RTRRRPPPPPIPSTQ

biological target: T18, Bbc1, P47068; test: SPOT array; details: median of control spots 796

Binder | SPOT intensity
SPLGAPPPPPHKDHL | 0
GDHPKGPPPPPPPPD | 0

More lines, now with the values ahead:

SPOT intensity | Binder
0 | TPEIPPPLPPKIMVH
434 | RTRRRPPPPPIPSTQ

biological target: T19, Sla1-3, P32790; test: SPOT array; details: median of control spots 5475

Binder | SPOT intensity
SPLGAPPPPPHKDHL | 0
GDHPKGPPPPPPPPD | 0

Results, then the binder that gave them:

SPOT intensity | Binder
0 | TPEIPPPLPPKIMVH
1980 | RTRRRPPPPPIPSTQ

biological target: T20, Cyk3, Q07533; test: SPOT array; details: median of control spots 1451

Binder | SPOT intensity
SPLGAPPPPPHKDHL | 0
GDHPKGPPPPPPPPD | 0

The next lines start with the values.

SPOT intensity | Binder
0 | TPEIPPPLPPKIMVH
3 | RTRRRPPPPPIPSTQ

biological target: Rvs167, P39743; test: SPOT array; details: median of control spots 2707
Sequence (P39743 419-482): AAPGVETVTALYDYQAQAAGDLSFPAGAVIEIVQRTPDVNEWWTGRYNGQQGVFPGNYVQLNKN

Binder | SPOT intensity
SPLGAPPPPPHKDHL | 2
GDHPKGPPPPPPPPD | 0

More lines, now with the values ahead:

SPOT intensity | Binder
0 | TPEIPPPLPPKIMVH
99 | RTRRRPPPPPIPSTQ

biological target: T21, Myo5, Q04439; test: SPOT array; details: median of control spots 471

Binder | SPOT intensity
SPLGAPPPPPHKDHL | 81
GDHPKGPPPPPPPPD | 262

More lines, now with the values ahead:

SPOT intensity | Binder
87 | TPEIPPPLPPKIMVH
243 | RTRRRPPPPPIPSTQ
